Test results taken from US20090131312A1.

B1: recombinant human I-TAC (ligand, UniProt O14625 22-94, looked up)
C-X-C motif chemokine 11: FPMFKRGRCLCIGPGVKAVKVADIEKASIMYPSNNCDKIEVIITLKENKGQRCLNPKSKQARLIIKKVERKNF
B2: recombinant human MIG (ligand, UniProt Q07325 23-125, looked up)
C-X-C motif chemokine 9: TPVVRKGRCSCISTNQGTIHLQSLKDLKQFAPSPSCEKIEIIATLKNGVQTCLNPDSADVKELIKKWEKQVSQKKKQKNGKKHQKKKVLKVRKSQRSRQKKTT
B3: recombinant human PF4 (ligand, UniProt P02776 32-101, looked up)
Platelet factor 4: EAEEDGDLQCLCVKTTSQVRPRHITSLEVIKAGPHCPTAQLIATLKNGRKICLDLQAPLYKKIIKKLLES

target: human CXCR3 (human) (UniProt P49682); test: cell-based or functional assay
Sequence of UniProt P49682 (P49682 whole entry): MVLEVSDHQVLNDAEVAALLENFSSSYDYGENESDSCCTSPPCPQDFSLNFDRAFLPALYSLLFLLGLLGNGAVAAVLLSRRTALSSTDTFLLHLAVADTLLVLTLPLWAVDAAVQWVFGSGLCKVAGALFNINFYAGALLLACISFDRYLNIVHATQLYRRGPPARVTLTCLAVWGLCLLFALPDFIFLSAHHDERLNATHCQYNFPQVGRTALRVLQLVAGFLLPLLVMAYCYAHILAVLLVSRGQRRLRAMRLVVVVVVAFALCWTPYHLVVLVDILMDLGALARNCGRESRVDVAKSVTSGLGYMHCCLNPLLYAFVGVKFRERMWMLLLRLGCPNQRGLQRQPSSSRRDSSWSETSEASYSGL

First: recombinant human IP-10 (ligand)
Second: native PF4 with native I-TAC N-loop (ligand)
The phosphorylated ERK1/2 (immunoblot), fold induction over control levels; HMVEC, 2 min. (fold induction over control) of the first is lower: 0.333 for the first, 0.915 for the second.

Going from B1 to B2, the phosphorylated ERK1/2 (immunoblot), fold induction over control levels; HMVEC, 2 min. (fold induction over control) rises from 0.205 to 1.56.

In the case of B3, the phosphorylated ERK1/2 (immunoblot), fold induction over control levels; HMVEC, 2 min. (fold induction over control) is reported as 1.01.

First: recombinant human IP-10 (ligand)
Second: native PF4 with native I-TAC N-loop (ligand)
The phosphorylated ERK1/2 (immunoblot), fold induction over control levels; HMVEC, 5 min. (fold induction over control) of the first is lower: 0.07 for the first, 1.06 for the second.

First: B1
Second: B2
The phosphorylated ERK1/2 (immunoblot), fold induction over control levels; HMVEC, 5 min. (fold induction over control) of the first is lower: 0.137 for the first, 1.13 for the second.

B3 gave a phosphorylated ERK1/2 (immunoblot), fold induction over control levels; HMVEC, 5 min. (fold induction over control) of 0.895.

Going from recombinant human IP-10 (ligand) to “native PF4 with native I-TAC N-loop (ligand)”, the phosphorylated ERK1/2 (immunoblot), fold induction over control levels; HMVEC, 15 min. (fold induction over control) rises from 0.382 to 3.28.

First: B1
Second: B2
The phosphorylated ERK1/2 (immunoblot), fold induction over control levels; HMVEC, 15 min. (fold induction over control) of the first is higher: 3.08 for the first, 1.31 for the second.

For B3, the phosphorylated ERK1/2 (immunoblot), fold induction over control levels; HMVEC, 15 min. (fold induction over control) was 1.78.

Going from recombinant human IP-10 (ligand) to “native PF4 with native I-TAC N-loop (ligand)”, the phosphorylated ERK1/2 (immunoblot), fold induction over control levels; HUVEC, 2 min. (fold induction over control) falls from 10.3 to 4.13.

Going from B1 to B2, the phosphorylated ERK1/2 (immunoblot), fold induction over control levels; HUVEC, 2 min. (fold induction over control) rises from 1.65 to 5.35.

B3 was tested, and the phosphorylated ERK1/2 (immunoblot), fold induction over control levels; HUVEC, 2 min. (fold induction over control) was 6.85.

First: recombinant human IP-10 (ligand)
Second: native PF4 with native I-TAC N-loop (ligand)
The phosphorylated ERK1/2 (immunoblot), fold induction over control levels; HUVEC, 5 min. (fold induction over control) of the first is higher: 10.8 for the first, 5.68 for the second.

Going from B1 to B2, the phosphorylated ERK1/2 (immunoblot), fold induction over control levels; HUVEC, 5 min. (fold induction over control) rises from 1.36 to 6.96.

B3 was tested, and the phosphorylated ERK1/2 (immunoblot), fold induction over control levels; HUVEC, 5 min. (fold induction over control) was 9.63.

Compared with recombinant human IP-10 (ligand), “native PF4 with native I-TAC N-loop (ligand)” is higher in phosphorylated ERK1/2 (immunoblot), fold induction over control levels; HUVEC, 15 min. (fold induction over control): 6.87 for the first, 9.83 for the second.

Going from B1 to B2, the phosphorylated ERK1/2 (immunoblot), fold induction over control levels; HUVEC, 15 min. (fold induction over control) rises from 1.31 to 5.76.

Work on B3 yielded a phosphorylated ERK1/2 (immunoblot), fold induction over control levels; HUVEC, 15 min. (fold induction over control) of 11.5.

First: recombinant human IP-10 (ligand)
Second: native PF4 with native I-TAC N-loop (ligand)
The phosphorylated ERK1/2 (immunoblot), fold induction over control levels; Pre-B-cells expressing human CXCR3, 2 min. (fold induction over control) of the first is lower: 1.03 for the first, 1.57 for the second.

First: B1
Second: B2
The phosphorylated ERK1/2 (immunoblot), fold induction over control levels; Pre-B-cells expressing human CXCR3, 2 min. (fold induction over control) of the first is higher: 2.24 for the first, 0.795 for the second.

For B3, the phosphorylated ERK1/2 (immunoblot), fold induction over control levels; Pre-B-cells expressing human CXCR3, 2 min. (fold induction over control) was 1.25.

Compared with recombinant human IP-10 (ligand), “native PF4 with native I-TAC N-loop (ligand)” is higher in phosphorylated ERK1/2 (immunoblot), fold induction over control levels; Pre-B-cells expressing human CXCR3, 5 min. (fold induction over control): 0.921 for the first, 1.16 for the second.

First: B1
Second: B2
The phosphorylated ERK1/2 (immunoblot), fold induction over control levels; Pre-B-cells expressing human CXCR3, 5 min. (fold induction over control) of the first is higher: 1.38 for the first, 0.842 for the second.

In the case of B3, the phosphorylated ERK1/2 (immunoblot), fold induction over control levels; Pre-B-cells expressing human CXCR3, 5 min. (fold induction over control) is reported as 1.33.

Compared with recombinant human IP-10 (ligand), “native PF4 with native I-TAC N-loop (ligand)” is higher in phosphorylated ERK1/2 (immunoblot), fold induction over control levels; Pre-B-cells expressing human CXCR3, 15 min. (fold induction over control): 0.57 for the first, 0.931 for the second.

First: B1
Second: B2
The phosphorylated ERK1/2 (immunoblot), fold induction over control levels; Pre-B-cells expressing human CXCR3, 15 min. (fold induction over control) of the first is lower: 1.22 for the first, 1.76 for the second.

B3 gave a phosphorylated ERK1/2 (immunoblot), fold induction over control levels; Pre-B-cells expressing human CXCR3, 15 min. (fold induction over control) of 1.45.
